# Data published in patent publication EP3088890B1 (Chugai Seiyaku Kabushiki Kaisha, dated 2020).
# B1: GT165 antibody (antibody, IgG1, V domains shown)
# VH: QVQLQQSGAELVGPGASVKISCKAFGYTFTNHHINWVKQRPGQGLDWIGYINPYNDYTNYNQKFKGKATLTVDKSSSTAYMELSSLTSEDSAVYYCARSDPAWFAYWGQGTLVTVSA
# VL: DIQMTQSPSSLSASLGGKVTITCKASQDINKNIAWYQHKPGKGPRLLIWYTYTLQPGIPSRFSGSGSGRDYSFSISNLEPEDIATYYCLQYDNLPFTFGTGTKLEIKR
# Key:
# [1] = target: T1, AW3, C-terminally His-tagged recombinant product of positions 1 to 218 of GPC3 (human, UniProt P51654 25-218); test: Western blot, pellets of CHO cells expressing the product
# T1 construct: Expressed in CHO cells, cell pellets used in Western blot; The range is as printed and starts at position 1; not shown: C-terminal His tag
# [2] = target: T2, GPC3 peptide 281-310 (SEQ ID NO: 15) (human); test: peptide ELISA, peptide on plate
# T2 construct: Synthetic 30-residue peptide of GPC3
# T2 peptide: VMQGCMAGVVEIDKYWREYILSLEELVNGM
# [3] = target: T3, GPC3 peptide 301-330 (SEQ ID NO: 16) (human); test: peptide ELISA, peptide on plate
# T3 construct: Synthetic 30-residue peptide of GPC3
# T3 peptide: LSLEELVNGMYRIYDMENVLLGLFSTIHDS
# [4] = target: T4, GPC3 peptide 241-270 (SEQ ID NO: 13) (human); test: peptide ELISA, peptide on plate
# T4 construct: Synthetic 30-residue peptide of GPC3
# T4 peptide: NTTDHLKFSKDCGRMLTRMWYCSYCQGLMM
# [5] = target: T5, GPC3 peptide 261-290 (SEQ ID NO: 14) (human); test: peptide ELISA, peptide on plate
# T5 construct: Synthetic 30-residue peptide of GPC3
# T5 peptide: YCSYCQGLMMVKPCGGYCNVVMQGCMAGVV
# [6] = target: T6, GPC3 peptide 341-370 (SEQ ID NO: 18) (human); test: peptide ELISA, peptide on plate
# T6 construct: Synthetic 30-residue peptide of GPC3
# T6 peptide: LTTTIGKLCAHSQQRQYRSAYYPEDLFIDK
# [7] = target: T7, GPC3 peptide 61-90 (SEQ ID NO: 4) (human); test: peptide ELISA, peptide on plate
# T7 construct: Synthetic 30-residue peptide of GPC3
# T7 peptide: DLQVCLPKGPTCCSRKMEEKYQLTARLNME
# [8] = target: T8, GPC3 peptide 21-50 (SEQ ID NO: 2) (human); test: peptide ELISA, peptide on plate
# T8 construct: Synthetic 30-residue peptide of GPC3
# T8 peptide: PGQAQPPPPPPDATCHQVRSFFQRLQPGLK
# [9] = target: T9, GPC3 peptide 551-580 (SEQ ID NO: 29) (human); test: peptide ELISA, peptide on plate
# T9 construct: Synthetic 30-residue peptide of GPC3
# T9 peptide: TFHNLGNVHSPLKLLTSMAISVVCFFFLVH
# [10] = target: T10, GPC3 peptide 161-190 (SEQ ID NO: 9) (human); test: peptide ELISA, peptide on plate
# T10 construct: Synthetic 30-residue peptide of GPC3
# T10 peptide: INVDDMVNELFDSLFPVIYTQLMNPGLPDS
# [11] = target: T11, GPC3 peptide 101-130 (SEQ ID NO: 6) (human); test: peptide ELISA, peptide on plate
# T11 construct: Synthetic 30-residue peptide of GPC3
# T11 peptide: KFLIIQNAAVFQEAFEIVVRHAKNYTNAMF
# [12] = target: T12, GPC3 peptide 141-170 (SEQ ID NO: 8) (human); test: peptide ELISA, peptide on plate
# T12 construct: Synthetic 30-residue peptide of GPC3
# T12 peptide: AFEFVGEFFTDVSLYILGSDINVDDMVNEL
# [13] = target: T13, GPC3 peptide 81-110 (SEQ ID NO: 5) (human); test: peptide ELISA, peptide on plate
# T13 construct: Synthetic 30-residue peptide of GPC3
# T13 peptide: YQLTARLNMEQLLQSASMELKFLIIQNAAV
# [14] = target: T14, GPC3 peptide 501-530 (SEQ ID NO: 26) (human); test: peptide ELISA, peptide on plate
# T14 construct: Synthetic 30-residue peptide of GPC3
# T14 peptide: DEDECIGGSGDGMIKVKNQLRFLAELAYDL
# [15] = target: T15, GPC3 peptide 541-570 (SEQ ID NO: 28) (human); test: peptide ELISA, peptide on plate
# T15 construct: Synthetic 30-residue peptide of GPC3
# T15 peptide: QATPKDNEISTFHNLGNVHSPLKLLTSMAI
# [16] = target: T16, GPC3 peptide 481-510 (SEQ ID NO: 25) (human); test: peptide ELISA, peptide on plate
# T16 construct: Synthetic 30-residue peptide of GPC3
# T16 peptide: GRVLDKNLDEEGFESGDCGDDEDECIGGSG
# [17] = target: T17, GPC3 peptide 401-430 (SEQ ID NO: 21) (human); test: peptide ELISA, peptide on plate
# T17 construct: Synthetic 30-residue peptide of GPC3
# T17 peptide: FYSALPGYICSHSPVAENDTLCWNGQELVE
# [18] = target: T18, GPC3 peptide 441-470 (SEQ ID NO: 23) (human); test: peptide ELISA, peptide on plate
# T18 construct: Synthetic 30-residue peptide of GPC3
# T18 peptide: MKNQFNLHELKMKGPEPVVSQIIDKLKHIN
# [19] = target: T19, GPC3 peptide 321-350 (SEQ ID NO: 17) (human); test: peptide ELISA, peptide on plate
# T19 construct: Synthetic 30-residue peptide of GPC3
# T19 peptide: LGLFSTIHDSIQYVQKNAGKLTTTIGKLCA
# [20] = target: T20, GPC3 peptide 361-390 (SEQ ID NO: 19) (human); test: peptide ELISA, peptide on plate
# T20 construct: Synthetic 30-residue peptide of GPC3
# T20 peptide: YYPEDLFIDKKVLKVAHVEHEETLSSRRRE
# [21] = target: T21, GPC3 peptide 1-30 (SEQ ID NO: 1) (human); test: peptide ELISA, peptide on plate
# T21 construct: Synthetic 30-residue peptide of GPC3
# T21 peptide: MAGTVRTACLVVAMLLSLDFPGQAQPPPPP
# [22] = target: T22, GPC3 peptide 221-250 (SEQ ID NO: 12) (human); test: peptide ELISA, peptide on plate
# T22 construct: Synthetic 30-residue peptide of GPC3
# T22 peptide: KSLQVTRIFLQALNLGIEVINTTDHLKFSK
# [23] = target: T23, GPC3 peptide 421-450 (SEQ ID NO: 22) (human); test: peptide ELISA, peptide on plate
# T23 construct: Synthetic 30-residue peptide of GPC3
# T23 peptide: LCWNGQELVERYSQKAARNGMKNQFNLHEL
# [24] = target: T24, GPC3 peptide 181-210 (SEQ ID NO: 10) (human); test: peptide ELISA, peptide on plate
# T24 construct: Synthetic 30-residue peptide of GPC3
# T24 peptide: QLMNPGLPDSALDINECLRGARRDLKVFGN
# [25] = target: T25, GPC3 peptide 41-70 (SEQ ID NO: 3) (human); test: peptide ELISA, peptide on plate
# T25 construct: Synthetic 30-residue peptide of GPC3
# T25 peptide: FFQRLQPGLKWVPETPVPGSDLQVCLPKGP
# [26] = target: T26, GPC3 peptide 121-150 (SEQ ID NO: 7) (human); test: peptide ELISA, peptide on plate
# T26 construct: Synthetic 30-residue peptide of GPC3
# T26 peptide: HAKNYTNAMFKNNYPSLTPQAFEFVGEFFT
# [27] = target: T27, GPC3 peptide 521-550 (SEQ ID NO: 27) (human); test: peptide ELISA, peptide on plate
# T27 construct: Synthetic 30-residue peptide of GPC3
# T27 peptide: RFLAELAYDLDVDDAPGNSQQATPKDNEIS
# [28] = target: T28, GPC3 peptide 461-490 (SEQ ID NO: 24) (human); test: peptide ELISA, peptide on plate
# T28 construct: Synthetic 30-residue peptide of GPC3
# T28 peptide: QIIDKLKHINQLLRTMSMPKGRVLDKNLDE
# [29] = target: T29, GPC3 peptide 381-410 (SEQ ID NO: 20) (human); test: peptide ELISA, peptide on plate
# T29 construct: Synthetic 30-residue peptide of GPC3
# T29 peptide: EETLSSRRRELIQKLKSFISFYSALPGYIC
# [30] = target: T30, GPC3 peptide 201-230 (SEQ ID NO: 11) (human); test: peptide ELISA, peptide on plate
# T30 construct: Synthetic 30-residue peptide of GPC3
# T30 peptide: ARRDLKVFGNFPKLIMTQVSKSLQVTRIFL
# T1 sequence (P51654 25-218): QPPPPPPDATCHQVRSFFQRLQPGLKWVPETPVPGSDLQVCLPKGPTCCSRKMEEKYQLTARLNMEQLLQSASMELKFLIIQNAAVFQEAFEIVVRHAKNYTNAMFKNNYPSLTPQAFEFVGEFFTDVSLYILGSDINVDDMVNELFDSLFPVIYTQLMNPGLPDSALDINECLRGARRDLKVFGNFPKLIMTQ
binder,measurement,setting,value
B1,binding result,[1],no binding
same,binding result,[2],no binding (tested: 2 µg/mL)
same,binding result,[3],no binding (tested: 2 µg/mL)
same,binding result,[4],no binding (tested: 2 µg/mL)
same,binding result,[5],no binding (tested: 2 µg/mL)
same,binding result,[6],no binding (tested: 2 µg/mL)
same,binding result,[7],no binding (tested: 2 µg/mL)
same,binding result,[8],no binding (tested: 2 µg/mL)
same,binding result,[9],no binding (tested: 2 µg/mL)
same,binding result,[10],no binding (tested: 2 µg/mL)
same,binding result,[11],no binding (tested: 2 µg/mL)
same,binding result,[12],no binding (tested: 2 µg/mL)
same,binding result,[13],no binding (tested: 2 µg/mL)
same,binding result,[14],no binding (tested: 2 µg/mL)
same,binding result,[15],no binding (tested: 2 µg/mL)
same,binding result,[16],no binding (tested: 2 µg/mL)
same,binding result,[17],no binding (tested: 2 µg/mL)
same,binding result,[18],no binding (tested: 2 µg/mL)
same,binding result,[19],no binding (tested: 2 µg/mL)
same,binding result,[20],no binding (tested: 2 µg/mL)
same,binding result,[21],no binding (tested: 2 µg/mL)
same,binding result,[22],no binding (tested: 2 µg/mL)
same,binding result,[23],no binding (tested: 2 µg/mL)
same,binding result,[24],no binding (tested: 2 µg/mL)
same,binding result,[25],no binding (tested: 2 µg/mL)
same,binding result,[26],no binding (tested: 2 µg/mL)
same,binding result,[27],no binding (tested: 2 µg/mL)
same,binding result,[28],no binding (tested: 2 µg/mL)
same,binding result,[29],no binding (tested: 2 µg/mL)
same,binding result,[30],no binding (tested: 2 µg/mL)
